Columns and labels:
[1] = system: iPS cells; test: Three-dimensional suspension (spinner flask) culture of iPS cells with BMP4, hCG by GONASTICK W; assay type: cell-based, human; details: for hCG production: Example 1, spinner flask
Experimental: (§1) In GONASTICK W, about 0.5 to 1 mL of the culture supernatant was sampled, and a test strip was soaked therein. After the soaking was completed, the determination surface of the test strip was placed to face upward and allowed to stand until the culture supernatant passed through the determination window and reached the reaction end window. […] The detection sensitivity of the present examination reagent is 25 IU/L, and a blue control line corresponding to an hCG concentration of 1,000 IU/L is printed in advance on the determination window, which can be visually compared with the determination line.
(§2) In a case where a line equal to or more blue-colored than the control line was visually observed on the determination line, it was judged as positive (+).
(§3) In a case where the line was not visually observed on the determination line, it was determined to be negative (−).
(§4) In a case where a line that was less blue-colored than the control line but was visible was visually observed on the determination line, it was determined to be (+/−).
30 mL of an iPS cell medium (StemFit (registered trade name) AK02N: Ajinomoto Co., Inc.) was dispensed into a 30 mL volume spinner flask (ABLE Corporation), and then iPS cells (1.6×10^7 cells/mL) were seeded. BMP4 was not added at the start of culture, but 30 μL of a solution containing 50 μg/mL BMP4 (R&D Systems Inc.) was added on the 4th day of culture so that the final concentration of BMP4 in the medium was to be 50 ng/mL. In a case where BMP4 was added to Example 2 and subsequent Examples, the same concentration was used. After the start of culture, the addition of BMP4 was continued until the 18th day of culture while exchanging half of the medium every 3 to 4 days, and thereafter, only the medium was exchanged without adding BMP4. Cell aggregates (spheroids) were formed by the 4th day of culture (FIG. 1). The stirring culture was continued in a spinner flask throughout the culture period. Although the hCG production was not confirmed until the 11th day of culture, the hCG production was confirmed after the 15th day of culture, and it was confirmed that the hCG production was continued even after the 60th day of culture (Table 2).
30 mL of an iPS cell medium (StemFit (registered trade name) AK02N: Ajinomoto Co., Inc.) was dispensed into a 30 mL volume spinner flask (ABLE Corporation), and then iPS cells (1.1×10^7 cells/bottle) were seeded. The comparison was carried out between the level 1 in which BMP4 was not added at the start of culture but added on the 4th day of culture and the level 2 in which BMVP was added from the start of culture. BMP4 was added so that the concentration in the medium was 50 ng/mL in both the level 1 and the level 2. After the start of culture, half of the medium was exchanged every 3 to 4 days, and after the 18th day of culture, the medium was exchanged for both the level 1 and the level 2 with a medium to which BMP4 had not been added. By the 4th day of culture, cell aggregates (spheroids) were formed. Regarding the level 1 and the level 2, stirring culture was continued in a spinner flask from the initial stage of culture, and the hCG production was checked. In a case where BMP4 is added from the start of culture (the level 2), the hCG production is started earlier; however, the hCG production also stops earlier. On the other hand, in a case where BMP4 is added after the 4th day of culture (the level 1), the hCG production is slightly delayed; however, it continued for a long time.

[2] = system: iPS cells; test: Two-dimensional adhesion culture of iPS cells with BMP4, hCG in culture supernatant by GONASTICK W; assay type: cell-based, human; details: 2D adhesion culture, StemFit, BMP4 present
Experimental: as §1, §2, §3, §4
Laminin (iMatrix-511: Nippi. Inc.) was diluted with Dulbecco's phosphate buffered saline (DPBS), 1 mL thereof per well was dispensed into a 6-well plate (Falcon TC: #353046), and the plate was allowed to stand in a 37° C. incubator for 1 hour to be coated with laminin. 2 mL of an iPS cell medium (StemFit (registered trade name) AK02N: Ajinomoto Co., Inc.) to which 2 μL of a solution containing 50 μg/mL BMP4 (R&D Systems Inc.) had been added was dispensed into the laminin-coated plate, and iPS cells (4×10^4 cells/well) were seeded therein. The culture was continued while appropriately changing the medium, and the hCG contained in the culture supernatant was detected using a drug for in vitro diagnosis for the pregnancy test, GONASTICK W (MOCHIDA PHARMACEUTICAL Co., Ltd.), whereby the differentiation induction into a placental tissue was checked. As a negative control, the same culture was carried out using a medium to which BMP4 had not been added. The hCG was started to be produced on the 7th day of culture; however, the hCG production stopped around the 18th day (Table 1).

B1: BMP4: bone morphogenetic protein BMP4 (R&D Systems Inc.), added to iPS cell medium at 50 ng/mL to induce differentiation (protein, UniProt P12644 293-408, looked up)
Bone morphogenetic protein 4: SPKHHSQRARKKNKNCRRHSLYVDFSDVGWNDWIVAPPGYQAFYCHGDCPFPLADHLNSTNHAIVQTLVNSVNSSIPKACCVPTELSAISMLYLDEYDKVVLKNYQEMVVEGCGCR
B1 was tested, and the hCG production ([1]; BMP4 50 ng/mL day 4 to 18, day 15) was “+ (a line equal to or more blue-colored than the control line was visually observed on the determination line, it was judged as positive (+))”, the hCG production ([1]; BMP4 50 ng/mL day 4 to 18, day 39) was “+ (a line equal to or more blue-colored than the control line was visually observed on the determination line, it was judged as positive (+))” and the hCG production ([1]; BMP4 50 ng/mL day 4 to 18, day 53) was “+ (a line equal to or more blue-colored than the control line was visually observed on the determination line, it was judged as positive (+))”. For the same molecule, the hCG production ([1]; BMP4 50 ng/mL day 4 to 18, day 67) was “+ (a line equal to or more blue-colored than the control line was visually observed on the determination line, it was judged as positive (+))”, the HCG production ([1]; level 1: BMP4 50 ng/mL added from day 4, spinner flask, day 8) was “− (the line was not visually observed on the determination line, it was determined to be negative (−))” and the HCG production ([1]; level 1: BMP4 added from day 4, day 11) was “− (the line was not visually observed on the determination line, it was determined to be negative (−))”. The HCG production ([1]; level 1: BMP4 added from day 4, day 14) was “+/− (a line that was less blue-colored than the control line but was visible was visually observed on the determination line, it was determined to be (+/−))”, the HCG production ([1]; level 1: BMP4 added from day 4, day 18) was “+ (a line equal to or more blue-colored than the control line was visually observed on the determination line, it was judged as positive (+))” and the HCG production ([1]; level 1: BMP4 added from day 4, day 21) was “+ (a line equal to or more blue-colored than the control line was visually observed on the determination line, it was judged as positive (+))”. For the same molecule, the HCG production ([1]; level 1: BMP4 added from day 4, day 25) was “+ (a line equal to or more blue-colored than the control line was visually observed on the determination line, it was judged as positive (+))”, the HCG production ([1]; level 1: BMP4 added from day 4, day 28) was “+ (a line equal to or more blue-colored than the control line was visually observed on the determination line, it was judged as positive (+))” and the HCG production ([1]; level 1: BMP4 added from day 4, day 32) was “+ (a line equal to or more blue-colored than the control line was visually observed on the determination line, it was judged as positive (+))”. For the same molecule, the HCG production ([1]; level 2: BMP4 50 ng/mL added from start of culture, spinner flask, day 8) was “+ (a line equal to or more blue-colored than the control line was visually observed on the determination line, it was judged as positive (+))”, the HCG production ([1]; level 2: BMP4 added from start of culture, day 11) was “+ (a line equal to or more blue-colored than the control line was visually observed on the determination line, it was judged as positive (+))” and the HCG production ([1]; level 2: BMP4 added from start of culture, day 14) was “+ (a line equal to or more blue-colored than the control line was visually observed on the determination line, it was judged as positive (+))”. The HCG production ([1]; level 2: BMP4 added from start of culture, day 18) was “+ (a line equal to or more blue-colored than the control line was visually observed on the determination line, it was judged as positive (+))”, the HCG production ([1]; level 2: BMP4 added from start of culture, day 21) was “+ (a line equal to or more blue-colored than the control line was visually observed on the determination line, it was judged as positive (+))” and the HCG production ([1]; level 2: BMP4 added from start of culture, day 25) was “+/− (a line that was less blue-colored than the control line but was visible was visually observed on the determination line, it was determined to be (+/−))”. The HCG production ([1]; level 2: BMP4 added from start of culture, day 28) was “− (the line was not visually observed on the determination line, it was determined to be negative (−))”, the HCG production ([1]; level 2: BMP4 added from start of culture, day 32) was “− (the line was not visually observed on the determination line, it was determined to be negative (−))” and the hCG production ([2]; day 7) was “+ (a line equal to or more blue-colored than the control line was visually observed on the determination line, it was judged as positive (+))”. For the same molecule, the hCG production ([2]; day 11) was “+ (a line equal to or more blue-colored than the control line was visually observed on the determination line, it was judged as positive (+))”, the hCG production ([2]; day 15) was “+ (a line equal to or more blue-colored than the control line was visually observed on the determination line, it was judged as positive (+))” and the hCG production ([2]; day 18) was “+/− (a line that was less blue-colored than the control line but was visible was visually observed on the determination line, it was determined to be (+/−))”. The hCG production ([2]; day 21) was “− (the line was not visually observed on the determination line, it was determined to be negative (−))”.
